{"source": "the nanobody polyreactivity screen of Harvey et al. (2022)"}
{"test": "yeast display, Sf9 membrane polyspecificity reagent, FACS + sequencing; frameworks hold sequencing errors", "method_in_brief": "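Polyreactivity labels are assigned by the sorting gate from which each nanobody was recovered. The gates were low and high (top ~1%), set on anti-HA fluorescence for expression and streptavidin fluorescence for reagent binding. Before sorting, galactose-induced (36–48 hours) yeast display cells were stained for 1 hour at 4 °C with 10% biotinylated, detergent-solubilized Sf9 membrane reagent.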"}
{"sequence": "QVQLVESGGCLVQAGGSLRLSCAASGSTFDINAMGWYRQAPGKESELVASITFSGGSTYYADSVKGRFTISRDNAKNTVYLQMNSLKPEDTAVYYCAADSSGEYPGGYWGQGTQVTVTS", "polyreactivity (PSR sort gate)": "low polyreactivity"}
{"sequence": "QVQLVESGGCLVQAGGSLRLSCAASGSTFGGNAMGWYRQAPGKERELVAAISTSGGSTYYADSVKGRFTISRDNAKNTVYLQMNSLKPEDTAVYYCNAVRIGGAPRSRFYDWGQCTQVTVSS", "polyreactivity (PSR sort gate)": "high polyreactivity"}
{"sequence": "QVQLVESGGCLVQAGGSLRLSCAASGSTFHYNAMGWYRQAPGKERELVATISWSGGSTYYADSVKGRFTISRDNAKNTVYLQMNSLKPEDTAVYYCAARYSGYRGSFYGRHGGKYYYWGQGTQVTVSS", "polyreactivity (PSR sort gate)": "high polyreactivity"}
{"sequence": "QVQLVESGGCLVQAGGSLRLSCAASGSTFPAYAMGWYRPAPGKERELVAAISRSGGSTYYADSVKGRFTISRDNAKNTVYLQMNSLKPEDTAVYYCAARAAYSYDDGYWGQGTQVTVSS", "polyreactivity (PSR sort gate)": "high polyreactivity"}
{"sequence": "QVQLVESGGCLVQAGGSLRLSCAASGSTFWSYAMGLYRQAPGKARELVAVIYRGGSTNYADSVKGRFTISRDNAKNTVYVQMNSLKREDTAVYYCASRYKTAEYYYWGQGTQVTVSS", "polyreactivity (PSR sort gate)": "high polyreactivity"}
{"sequence": "QVQLVESGGCLVQAGGSLRLSCAASGSTIYAMGWYRQAPGKERELVAGINRSGTRTYYADSVKGRFTISRDNAKNTVYLQMNSLKPEDTAVYYCAALVYRPTYGYIFDYWGQGTQVTVSS", "polyreactivity (PSR sort gate)": "high polyreactivity"}
{"sequence": "QVQLVESGGCLVQAGGSLRLSCASSGRTFRRYTMGWYRQAPGKETELVAAITSGGRTNYADSVKGRFTISRDNAKNTVYLQMNSLKPEDTAVYYCNAQNEIWRVTFSPYDRWGYDYWGQGTQVTVSS", "polyreactivity (PSR sort gate)": "low polyreactivity"}
{"sequence": "QVQLVESGGCLVQAGGSLRLSCASSGSTIGGYAMGWYRQAPGKERELVAAITWNGGRTYYADSVKGRFTISRDNAKNTVYVQMTSLKQEDTAVYYCATLNLSRSKRVSGGGYWGQGTQVTVSS", "polyreactivity (PSR sort gate)": "high polyreactivity"}
{"sequence": "QVQLVESGGCLVQAGGSLRLSCASTGSIIYWYTMGWYRQAHGKDRELVAASSSIDGNTYYADSVKGRFTISRDNAKNTVYLQMNSLKPEDTAVYYCPAAYYNTDYYYWGQGTQVTVSS", "polyreactivity (PSR sort gate)": "low polyreactivity"}
{"sequence": "QVQLVESGGCLVQAGGSLRLSSAASGRTFRYYAMGSYRQAPGKERELVAAITVTVTSTFYADSVKGRFTISRDNAKNTVYLQMNSLKPEDTAVYYCAVPGATSYFPDDSWGQGTQVTVSS", "polyreactivity (PSR sort gate)": "low polyreactivity"}
{"sequence": "QVQLVESGGCLVQAGGSQRLSCAASGIIFEGYAMRWYRQAPGRERELVAAISQSGGSTRYADSVKGRFTISRDNAKNTVYLQMNRLKAEDTAVYYCAKEVWNWGPYYYWGQGSQVTVSS", "polyreactivity (PSR sort gate)": "low polyreactivity"}
{"sequence": "QVQLVESGGCLVQAGGTLRLSGAASGRTFRADGMGWCRQPPGKEWELVAVISWRDGSTFYADSVQGRFTISRDTAKNTVYLQMNSLKPEDTAVYYCNKASQLYYIQGTYSYGYWGQGTQVTVSS", "polyreactivity (PSR sort gate)": "low polyreactivity"}
{"sequence": "QVQLVESGGCLVQEGGSLRLSCAASGITFYLYAMGWYSQGPGKERELVATISRSGGSTYADSVKGRFTISRDNAKNNVYLQRNSLKPEDTAVDYCNADGWYGYWGQGTQVTVSS", "polyreactivity (PSR sort gate)": "low polyreactivity"}
{"sequence": "QVQLVESGGCLVQEGGSLRLSCAASGSTVTYYDMGWYRQAPGKERELVATIDSTTRTYYADSVKGRFTISRDNAKNTVYLQMNSLKPEDTAVYYCAADMTWGYFYYLFYRYDYWGKGTQVTVSS", "polyreactivity (PSR sort gate)": "low polyreactivity"}
{"sequence": "QVQLVESGGDLVQAGGSLRLSCAASGSIFYINAMGWYRQAPGKERELVASISYSGTSTYYADSVKGRFTISRDNAKNTFFLQMNSLKPEDTAVYYCNAEDTAGAGDGYWGEGTQVTVSS", "polyreactivity (PSR sort gate)": "low polyreactivity"}
{"sequence": "QVQLVESGGDLVQAGGSLRLSCAATGFTFDYYAMGWYRQAPGKEREFVAAISRSGGRTYYADSVKGRFTISRDNAKNTVYLQMNSLKQEDTAVYYCAAGFVGERFDYWGQGTQVTVSS", "polyreactivity (PSR sort gate)": "high polyreactivity"}
{"sequence": "QVQLVESGGDLVQAGGSLRLSCGASGFIFDGYAMGWYRQAPGKERELVAAISSSGGRTHYADSVKGRFKISRDNAMNTVYLQMNSLKAEDTAVYYCAATVRGKRSTYDYWGQGTQVTVSS", "polyreactivity (PSR sort gate)": "high polyreactivity"}
{"sequence": "QVQLVESGGFLVQAGGSLRLSCAASGFTFAKYAMGWSRQAPRKERELVAVITSSGGRTYYADSVKARFTISRDTAKNTVYLQMISLKPEDTAVYYCNAGKYVYATSQYDYWGQGTQVTVSS", "polyreactivity (PSR sort gate)": "high polyreactivity"}
{"sequence": "QVQLVESGGFLVQAGGSLRLSCAASGSTSYNYVMGWYRQAPRKERELVAGITWSDDITYYADSVKGRFSISRDNAKNTVYLQMNSLKPEDTAVYYCAAEDGPLYWRFPDEMDYWGQGTQVTVSS", "polyreactivity (PSR sort gate)": "low polyreactivity"}
{"sequence": "QVQLVESGGGEVQAGGSLRLSCAASGSIFRFYTMGWSRQAPGTERELVATLARGGSTNYADSVKGRFTISRDTAKNTVYLQMNSLKPEDTAVYYCNVAALYSTYCGYGYDYSGQGTQVTVSS", "polyreactivity (PSR sort gate)": "high polyreactivity"}
{"sequence": "QVQLVESGGGEVQEGGILRLSCAASGSIFSRNSMGWYRQAPGKDRELVAAITWSGGSTYYADSVKGRFTISRDNAKYTVYLLMNSLKPEDTAVYYCNADFAGTPNQYDYWGQGTQVTVSA", "polyreactivity (PSR sort gate)": "high polyreactivity"}
{"sequence": "QVQLVESGGGFDHAGGSLRLSCAAYGSTFVYNAMGWYRQAPGKERELVAAITSTGGNTDYADSVKGRFTISRDNAKNTVYLQMNSLKPEDTAVYYCNARDYYWLGFTYRFDYWGQGTQVTVSS", "polyreactivity (PSR sort gate)": "low polyreactivity"}
{"sequence": "QVQLVESGGGFVQAGASLRLSCAASGRTFYRYAMGWYRQAPGKERQLVAAINWRGGSTSYADSVKGRFTISRDNAKNTVYLQMNSLIPEDTAVYYCNAKFICWYEKGGCNVSKYEYWGQGTQVTVSS", "polyreactivity (PSR sort gate)": "low polyreactivity"}
{"sequence": "QVQLVESGGGFVQAGGSLRISCAASGRTFYPYAMGWYRQAPGKERELVAAISRSGGGTYYADSVKGRFTISRDNAKNTVYLQMNSLKPEDTAVDYCAADDGVAIYDYWGQGTQVTVSS", "polyreactivity (PSR sort gate)": "low polyreactivity"}
{"sequence": "QVQLVESGGGFVQAGGSLRLICAASGSIDYNAMGWYRQAPGKERELVAAITQRGGRTYYADSVKGRFTISRDNAKNTVYLQMNSLKPEDTAVYYCNTKGNYGLGYKNYYWGQGTQVTVSS", "polyreactivity (PSR sort gate)": "high polyreactivity"}
{"sequence": "QVQLVESGGGFVQAGGSLRLSCAASGFTFRYYAMGWYRQAPGKERELVAAISRGGNTYYADSVKGRFTMSRDNAKNTVYLQMNSLKPEDTAVYFCNSAYLYIARHGYWGQGTQVTVSS", "polyreactivity (PSR sort gate)": "high polyreactivity"}
{"sequence": "QVQLVESGGGFVQAGGSLRLSCAASGGIFDVYAMGWYRQAPGKERELVAAISENGGSTYYADSVKGRFTISRDNAKNTVYLQMNSLKPEDTAVYYCAADDVSLSVFSYWAWYDYWGQGSQVTVSS", "polyreactivity (PSR sort gate)": "low polyreactivity"}
{"sequence": "QVQLVESGGGFVQAGGSLRLSCAASGNTFAGNAMGGYRQAPGKERELDAAISRSGVTTRYADSVKGRFTISRDNAKNTVYFQMKSLKPEDTAVSYCNADPRLRETRDYWGQVTQVTVSS", "polyreactivity (PSR sort gate)": "high polyreactivity"}
{"sequence": "QVQLVESGGGFVQAGGSLRLSCAASGRIFLWNAMGWYRQAPGKERELVAGIRWSTGSTYYADSVKGRFTISRDNAKYTVSLQMYSLKRDDTAVYYCNARSLATGSKVPARGYWGQGTQVTVSS", "polyreactivity (PSR sort gate)": "high polyreactivity"}
{"sequence": "QVQLVESGGGFVQAGGSLRLSCAASGRIIGYNAMAWYRQAPGKDRELVAAITTSGGSTYYADSVKGRFTISRDNAKNTVYLQMNSLKPEDTAFYYCARDSLQVFYAYASDDFWGQGTQVTVSS", "polyreactivity (PSR sort gate)": "low polyreactivity"}
{"sequence": "QVQLVESGGGFVQAGGSLRLSCAASGRTFRYYAMGWYIQAPGKERELVASISSSGARTYYADSVKGRFTISRDNAKNTVYLQMNSLNPDDTAVYYCNARYSTTYYGTIYRGMDYWGQGTQVTVSS", "polyreactivity (PSR sort gate)": "high polyreactivity"}
{"sequence": "QVQLVESGGGFVQAGGSLRLSCAASGSIFYYNAMGWYRQAPGKEREFVAAITTSAGSTYYADSVKGRFTISRDNEKNTVYLQMYRLKPEDTAVYYCAASPGRRRRPYASLFRYDYWGQGTQVTVSS", "polyreactivity (PSR sort gate)": "high polyreactivity"}
{"sequence": "QVQLVESGGGFVQAGGSLRLSCAASGSNLGKNTMGWYRQAPGKERELVATISRSGGSTYYADSVKGRFTISRDNAKNTVYLQMNSLKPEDTAVYYCAARAIRSGYYRYDYWGQGTKVTVSS", "polyreactivity (PSR sort gate)": "high polyreactivity"}
{"sequence": "QVQLVESGGGFVQAGGSLRLSCAASGSTFFVYAMGWYRQAPGKERELVASIRWRGSSTYYADSVKGRFTISRDNAKNTVYLQMNSLKPEDTAVYYCAATSYNGYGYWGQGTQVTVSS", "polyreactivity (PSR sort gate)": "high polyreactivity"}
{"sequence": "QVQLVESGGGFVQAGGSLRLSCAASGSTFGTYAMGWYRQAPGKERELVAAISWSGGSTYYADSVKGRFTISRDNAKNTVYLQMNSLKPEDTAVYYCNATSSTPPGMDSWGQGTQVTVSS", "polyreactivity (PSR sort gate)": "low polyreactivity"}
{"sequence": "QVQLVESGGGFVQAGGSLRLSCAASGSTFLVYAMGWYRQAPGKERELVAVIDTGASTNYADSVKGRFTISRDNAKNTVYLQMNSLKPEDTAVYYCAAGFSYFTSVLSLDRYYYWGQGTQVTVSS", "polyreactivity (PSR sort gate)": "low polyreactivity"}
{"sequence": "QVQLVESGGGFVQAGGSLRLSCAASGSTFPVYAMGWYRQAPGKERELVAAISRSGASTYYADSVKGRFTISRDNAKNTVYLQMNSLKPEDTAVYYCARGYQGRLKNEYWGQGTQVNVSS", "polyreactivity (PSR sort gate)": "low polyreactivity"}
{"sequence": "QVQLVESGGGFVQAGGSLRLSCAASGYTFDHNAMGWYRQAPGKERELVAAISLTGSSTYYADSVKGRFTISRDNANNNVYLQMNSLKPEDTAVYYCAAVYHQAFKYKFNYWGQGTQVTVSS", "polyreactivity (PSR sort gate)": "low polyreactivity"}
{"sequence": "QVQLVESGGGFVQAGGSLRLSCAPSGRIFLRNDMGWYRQAPGKEREWVAGISWRGGRTYYADAVKGRFTISRDNAKNTVYLQMNSLKPEDTAVYYCNADKDETSGGKYDSWGQGTQVTVSS", "polyreactivity (PSR sort gate)": "low polyreactivity"}
{"sequence": "QVQLVESGGGFVQAGGSLRLSSAASGRTFDTNAMGWYRQSPGKERELVAAISWSAGRTYYADSVKGRFTISRDNAKNTVYLQMNSLKPEDTAVYYCAADSFTPDYYSHDYCGQGTQVTVSS", "polyreactivity (PSR sort gate)": "low polyreactivity"}
